{"source": "the supplement of paper PMC9112550", "about": "“Optimization of the antimicrobial peptide Bac7 by deep mutational scanning” (BMC Biology, 2022);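 note: peptides expressed intracellularly from a pBAD plasmid library in pooled LB shake-flask culture, induced with 0.3% L-arabinose, DNA abundance read by NGS, three biological replicates, DESeq2 with apeglm shrinkage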", "data": [{"system": "Escherichia coli TOP10", "test": "shrunken log2 fold change of peptide-encoding DNA abundance (4.5 h post-induction vs induction); higher = less antimicrobial activity (less host growth inhibition)", "details": "time post-induction: 4.5 h; library: site-saturation at positions 5, 18, 19, 20", "values": [{"sequence": "RRIRLRPPRLPRPRPRPGPDPRP", "shrunken log2 fold change": 0.953}, {"sequence": "RRIRVRPPRLPRPRPRPKSIPRP", "shrunken log2 fold change": -0.172}, {"sequence": "RRIRTRPPRLPRPRPRPFQMPRP", "shrunken log2 fold change": -0.135}, {"sequence": "RRIRSRPPRLPRPRPRPRKAPRP", "shrunken log2 fold change": 0.0188}, {"sequence": "RRIRCRPPRLPRPRPRPNAKPRP", "shrunken log2 fold change": 0.0347}, {"sequence": "RRIRHRPPRLPRPRPRPFQNPRP", "shrunken log2 fold change": -0.195}, {"sequence": "RRIRPRPPRLPRPRPRPTIFPRP", "shrunken log2 fold change": 0.0842}, {"sequence": "RRIRNRPPRLPRPRPRPISVPRP", "shrunken log2 fold change": -0.00409}, {"sequence": "RRIRCRPPRLPRPRPRPMSVPRP", "shrunken log2 fold change": -0.0655}, {"sequence": "RRIRCRPPRLPRPRPRPSQPPRP", "shrunken log2 fold change": 0.075}, {"sequence": "RRIRDRPPRLPRPRPRPMLVPRP", "shrunken log2 fold change": 0.116}, {"sequence": "RRIRDRPPRLPRPRPRPETEPRP", "shrunken log2 fold change": -0.0111}, {"sequence": "RRIRDRPPRLPRPRPRPVMVPRP", "shrunken log2 fold change": 0.111}, {"sequence": "RRIRTRPPRLPRPRPRPMKHPRP", "shrunken log2 fold change": -0.00108}, {"sequence": "RRIRDRPPRLPRPRPRPRWLPRP", "shrunken log2 fold change": 0.511}, {"sequence": "RRIRKRPPRLPRPRPRPECEPRP", "shrunken log2 fold change": 0.0869}, {"sequence": "RRIRIRPPRLPRPRPRPQDRPRP", "shrunken log2 fold change": -0.007}, {"sequence": "RRIRVRPPRLPRPRPRPEIFPRP", "shrunken log2 fold change": 0.00503}, {"sequence": "RRIRCRPPRLPRPRPRPEPCPRP", "shrunken log2 fold change": -0.0257}, {"sequence": "RRIRCRPPRLPRPRPRPCLLPRP", "shrunken log2 fold change": -1.45}, {"sequence": "RRIRLRPPRLPRPRPRPCHSPRP", "shrunken log2 fold change": -0.011}, {"sequence": "RRIRIRPPRLPRPRPRPQEIPRP", "shrunken log2 fold change": -0.581}, {"sequence": "RRIRFRPPRLPRPRPRPQEVPRP", "shrunken log2 fold change": 0.0758}, {"sequence": "RRIRRRPPRLPRPRPRPPFPPRP", "shrunken log2 fold change": 0.645}, {"sequence": "RRIRVRPPRLPRPRPRPKQFPRP", "shrunken log2 fold change": 0.109}, {"sequence": "RRIRIRPPRLPRPRPRPRSGPRP", "shrunken log2 fold change": 0.242}, {"sequence": "RRIRIRPPRLPRPRPRPDQIPRP", "shrunken log2 fold change": -0.0795}, {"sequence": "RRIRYRPPRLPRPRPRPHADPRP", "shrunken log2 fold change": -0.0359}, {"sequence": "RRIRVRPPRLPRPRPRPGNTPRP", "shrunken log2 fold change": -0.113}, {"sequence": "RRIRIRPPRLPRPRPRPVIFPRP", "shrunken log2 fold change": -0.402}, {"sequence": "RRIRCRPPRLPRPRPRPYKFPRP", "shrunken log2 fold change": -0.279}, {"sequence": "RRIRYRPPRLPRPRPRPRSVPRP", "shrunken log2 fold change": -0.0717}, {"sequence": "RRIRVRPPRLPRPRPRPGQWPRP", "shrunken log2 fold change": 0.0407}, {"sequence": "RRIRGRPPRLPRPRPRPLCMPRP", "shrunken log2 fold change": 0.605}, {"sequence": "RRIRQRPPRLPRPRPRPQKYPRP", "shrunken log2 fold change": -0.517}, {"sequence": "RRIRRRPPRLPRPRPRPIHNPRP", "shrunken log2 fold change": -0.329}, {"sequence": "RRIRARPPRLPRPRPRPRDCPRP", "shrunken log2 fold change": 0.391}, {"sequence": "RRIRKRPPRLPRPRPRPAPWPRP", "shrunken log2 fold change": 0.82}, {"sequence": "RRIRERPPRLPRPRPRPFYKPRP", "shrunken log2 fold change": 0.187}, {"sequence": "RRIRGRPPRLPRPRPRPLYCPRP", "shrunken log2 fold change": -0.0212}, {"sequence": "RRIRLRPPRLPRPRPRPDSAPRP", "shrunken log2 fold change": 0.0605}, {"sequence": "RRIRKRPPRLPRPRPRPVCTPRP", "shrunken log2 fold change": 2.01}, {"sequence": "RRIRLRPPRLPRPRPRPTSPPRP", "shrunken log2 fold change": -0.0576}, {"sequence": "RRIRVRPPRLPRPRPRPVCQPRP", "shrunken log2 fold change": 0.0508}, {"sequence": "RRIRGRPPRLPRPRPRPKAWPRP", "shrunken log2 fold change": 0.922}, {"sequence": "RRIRSRPPRLPRPRPRPISAPRP", "shrunken log2 fold change": -0.256}, {"sequence": "RRIRGRPPRLPRPRPRPVWDPRP", "shrunken log2 fold change": 0.593}, {"sequence": "RRIRKRPPRLPRPRPRPGARPRP", "shrunken log2 fold change": 0.962}, {"sequence": "RRIRKRPPRLPRPRPRPKLMPRP", "shrunken log2 fold change": 0.267}, {"sequence": "RRIRHRPPRLPRPRPRPSQFPRP", "shrunken log2 fold change": -0.247}, {"sequence": "RRIRSRPPRLPRPRPRPKGLPRP", "shrunken log2 fold change": -0.0223}, {"sequence": "RRIRSRPPRLPRPRPRPCATPRP", "shrunken log2 fold change": 0.162}, {"sequence": "RRIRKRPPRLPRPRPRPHPDPRP", "shrunken log2 fold change": -0.0313}, {"sequence": "RRIRIRPPRLPRPRPRPDFIPRP", "shrunken log2 fold change": -0.447}, {"sequence": "RRIRKRPPRLPRPRPRPATRPRP", "shrunken log2 fold change": 0.423}, {"sequence": "RRIRARPPRLPRPRPRPQEKPRP", "shrunken log2 fold change": -0.0334}, {"sequence": "RRIRGRPPRLPRPRPRPWHYPRP", "shrunken log2 fold change": 0.0232}, {"sequence": "RRIRKRPPRLPRPRPRPYRDPRP", "shrunken log2 fold change": -0.0176}, {"sequence": "RRIRKRPPRLPRPRPRPIYNPRP", "shrunken log2 fold change": -0.0567}, {"sequence": "RRIRGRPPRLPRPRPRPPDLPRP", "shrunken log2 fold change": 0.791}]}]}
